In US20180311300A1 (published 2018):
Where “and” joins values, the source holds several entries; their conditions need not be identical. Identical values can stand only once. Numbered stars: 1 amine (or outer) side, 2 acyl side, 3 side chain; on linkers, the order of the positions; unused ones are H or OH. Bridge positions count the residues as written; N and C are the ends. Square brackets hold non-standard residues; d marks the D form. Ends that are not written are not given here. Intermediate H = 1,1',1''-(1,7,13-trioxa-4,10,16-triazacyclooctadecane-4,10,16-triyl)tris(2-chloroethan-1-one), O=C(C[*:1])N1CCOCCN(C(=O)C[*:2])CCOCCN(C(=O)C[*:3])CCOCC1; Intermediate D = 1,1',1''-(1,4,7-triazonane-1,4,7-triyl)tris(prop-2-en-1-one), O=C(CC[*:1])N1CCN(C(=O)CC[*:2])CCN(C(=O)CC[*:3])CC1; Intermediate K = 1,3,5-tris(vinylsulfonyl)benzene, O=S(=O)(CC[*:1])c1cc(S(=O)(=O)CC[*:2])cc(S(=O)(=O)CC[*:3])c1; Intermediate C = 1,1',1''-(1,4,7-triazonane-1,4,7-triyl)tris(2-chloroethan-1-one); Intermediate I = 1,4,7-tris(vinylsulfonyl)-1,4,7-triazonane; 1Nal = N[C@@H](Cc1cccc2ccccc12)C(=O)O; Tle = CC(C)(C)[C@H](N)C(=O)O

Legend:
MT1-MMP hemopexin domain [1] = target: T1, MT1-MMP hemopexin domain (UniProt P50281 319-511); assay: fluorescence polarization (anisotropy) assay on MT1-MMP hemopexin domain; grade B = Ki >50 nM and <=100 nM
T1 construct: domain: hemopexin domain; also called hemopexin of MT1-MMP; membrane type 1 metalloprotease
Description: (§1) Direct Binding Fluorescence Polarization or Anisotropy Assays are performed by titrating a constant concentration of fluorescent tracer (here, the fluoresceinated bicyclic peptide to be studied) with its binding partner (here, the MT1-MMP hemopexin domain). As the concentration of binding partner increases during the titration, the polarization signal changes in proportion to the fraction of bound and unbound material. This allows determination of […] (Kd) quantitatively. Assay data can be fit using standard ligand binding equations.
(§2) The titrant (binding partner) concentration is varied from 0.1 nM up to typically 5 μM. The range is chosen such that the maximum change in fluorescent polarization can be observed. Buffers employed are phosphate buffered saline in the presence of 0.01% Tween. Experiments were run in black 384 well low-bind/low volume plates (Corning 3820), and the fluorescent polarization signal was measured using a BMG Pherastar FS plate reader. Fluorescent tracers referred to in the text are bicyclic peptides that have been fluoresceinated using 5,6-carboxyfluorescein. Fluoresceination may be performed on the N-terminal amino group of the peptide, which is separated from the bicycle core sequence by a sarcosine spacer (usually Sar5). […]

MT1-MMP hemopexin domain [2] = target: T1, MT1-MMP hemopexin domain; assay: fluorescence polarization (anisotropy) assay on MT1-MMP hemopexin domain; grade D = Ki >1,000 nM
Description: as §1, §2

MT1-MMP hemopexin domain [3] = target: T1, MT1-MMP hemopexin domain; assay: fluorescence polarization (anisotropy) assay on MT1-MMP hemopexin domain; grade A = Ki <50 nM
Description: as §1, §2

| Ki (MT1-MMP hemopexin domain [1]) | Ki (MT1-MMP hemopexin domain [3]) [nM] | Binder | further results |
| --- | --- | --- | --- |
| > 50 nM and ≤ 100 nM |  | AC[dA]NE[1Nal][dA]CEDFYD[Tle]C (linker 2-8-15 via Intermediate H, also called peptide 4 cyclised with Intermediate H) [I-58] |  |
|  | < 50 | AC[dA]NE[1Nal][dA]CEDFYD[Tle]C (linker 2-8-15 via Intermediate K, also called peptide 4 cyclised with Intermediate K) [I-61] |  |

The remaining lines, values behind:

| Binder | Ki (MT1-MMP hemopexin domain [1]) | Ki (MT1-MMP hemopexin domain [3]) [nM] | further results |
| --- | --- | --- | --- |
| AC[dA]NE[1Nal][dA]CEDFYD[Tle]C (linker 2-8-15 via Intermediate D, also called peptide 4 cyclised with Intermediate D) [I-55] | > 50 nM and ≤ 100 nM |  |  |
| AC[dA]NE[1Nal][dA]CEDFYD[Tle]C (linker 2-8-15 via Intermediate I, also called peptide 4 cyclised with Intermediate I) [I-59] |  |  | Ki (MT1-MMP hemopexin domain [2]): > 1000 nM |
| AC[dA]NE[1Nal][dA]CEDFYD[Tle]C (linker 2-8-15 via Intermediate C, also called peptide 4 cyclised with Intermediate C) [I-54] |  | < 50 |  |
